Residue numbers refer to the chain shown, from its start. Where no end group is shown, it is not given here.
Columns and labels:
[1] = molecular target: T1, AnkB_repeats site 3 mutant 'LFL' (Leu366, Phe399 and Leu432 to Gln) (human, UniProt Q01484 28-873, Leu366 substituted with Gln | Phe399 substituted with Gln | Leu432 substituted …); assay: FP
T1 sequence: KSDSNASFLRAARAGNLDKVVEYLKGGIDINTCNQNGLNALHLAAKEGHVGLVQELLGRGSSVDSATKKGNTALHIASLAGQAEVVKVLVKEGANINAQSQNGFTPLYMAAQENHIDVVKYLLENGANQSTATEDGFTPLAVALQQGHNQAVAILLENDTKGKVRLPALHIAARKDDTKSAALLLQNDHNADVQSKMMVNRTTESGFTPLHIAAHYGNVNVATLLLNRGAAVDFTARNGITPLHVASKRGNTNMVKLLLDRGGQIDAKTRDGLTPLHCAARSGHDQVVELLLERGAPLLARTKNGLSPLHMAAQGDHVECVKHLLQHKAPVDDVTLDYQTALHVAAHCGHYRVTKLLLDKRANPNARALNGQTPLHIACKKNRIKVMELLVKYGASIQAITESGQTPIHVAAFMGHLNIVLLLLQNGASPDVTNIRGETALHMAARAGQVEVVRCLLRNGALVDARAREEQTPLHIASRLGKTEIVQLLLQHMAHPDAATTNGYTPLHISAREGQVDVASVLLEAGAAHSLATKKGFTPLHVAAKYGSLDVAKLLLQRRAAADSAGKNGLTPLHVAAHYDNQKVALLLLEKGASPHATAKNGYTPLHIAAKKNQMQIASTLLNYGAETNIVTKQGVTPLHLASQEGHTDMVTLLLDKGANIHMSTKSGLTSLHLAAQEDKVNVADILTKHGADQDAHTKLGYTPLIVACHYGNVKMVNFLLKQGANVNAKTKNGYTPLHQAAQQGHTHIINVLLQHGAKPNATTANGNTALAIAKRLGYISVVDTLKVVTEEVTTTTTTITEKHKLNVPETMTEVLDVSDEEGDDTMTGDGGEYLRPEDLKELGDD

[2] = molecular target: T2, AnkB_repeats site 1 mutant 'FF' (Phe131 and Phe164 to Gln) (human, UniProt Q01484 28-873, Phe131 substituted with Gln | Phe164 substituted with Gln); assay: FP
T2 sequence: T1 sequence with F104Q, F137Q, Q339L, Q372F, Q405L

[3] = molecular target: T3, AnkB_repeats (24 ANK repeats of human 220 kDa ankyrin-B, residues 28–873) (human, UniProt Q01484 28-873); assay: FP
T3 chain: T1 sequence with Q339L, Q372F, Q405L

[4] = molecular target: T4, AnkB_repeats (24 ANK repeats of human 220 kDa ankyrin-B, residues 28–873) (human, UniProt Q01484 28-873); assay: fluorescence polarisation; FITC-labeled peptide (~1 µM) titrated with AnkB_repeats WT or mutants; 25°C; 50 mM Tris pH 8.0, 100 mM NaCl, 1 mM DTT, 1 mM EDTA; one-site binding model; settings: both partners purified
T4 construct: ankyrin-B (AnkB), human, 220 kDa isoform used as template, ANK repeats, residues 28-873; source: E. coli BL21 (DE3), purified
T4 sequence (looked up): T1 sequence with Q339L, Q372F, Q405L

- Kd [1]: 4 µM
- Kd [2]: 3.3 µM
- Kd [3]: 3.3 µM
- binding result [4]: binds
B1: Cav1.3 peptide (mouse Cav1.3 residues 2134–2166), FITC-labeled (peptide, UniProt Q99246-4 2134-2166, looked up)
peptide: ELQDFGPGYSDEEPDPGREEEDLADEMICITTL
modifications: also: FITC label (position not given here)
notes: voltage-gated calcium channel Cav1.3, mouse, residues 2134-2166; also called voltage-gated calcium channel Cav1.3 peptide; source: synthetic peptide (commercially synthesized)

Source: paper PMC4358367, “Structural basis of diverse membrane target recognitions by ankyrins” (eLife, 2014)
